{"source": "paper PMC6113293", "about": "“Phosphorylation of ULK1 affects autophagosome fusion and links chaperone-mediated autophagy to macroautophagy” (Nature Communications, 2018)", "binders": {"B1": {"name": "Myc-ULK1 WT, O75385 1-1050 (enzyme)", "chain": "MEPGRGGTETVGKFEFSRKDLIGHGAFAVVFKGRHREKHDLEVAVKCINKKNLAKSQTLLGKEIKILKELKHENIVALYDFQEMANSVYLVMEYCNGGDLADYLHAMRTLSEDTIRLFLQQIAGAMRLLHSKGIIHRDLKPQNILLSNPAGRRANPNSIRVKIADFGFARYLQSNMMAATLCGSPMYMAPEVIMSQHYDGKADLWSIGTIVYQCLTGKAPFQASSPQDLRLFYEKNKTLVPTIPRETSAPLRQLLLALLQRNHKDRMDFDEFFHHPFLDASPSVRKSPPVPVPSYPSSGSGSSSSSSSTSHLASPPSLGEMQQLQKTLASPADTAGFLHSSRDSGGSKDSSCDTDDFVMVPAQFPGDLVAEAPSAKPPPDSLMCSGSSLVASAGLESHGRTPSPSPPCSSSPSPSGRAGPFSSSRCGASVPIPVPTQVQNYQRIERNLQSPTQFQTPRSSAIRRSGSTSPLGFARASPSPPAHAEHGGVLARKMSLGGGRPYTPSPQVGTIPERPGWSGTPSPQGAEMRGGRSPRPGSSAPEHSPRTSGLGCRLHSAPNLSDLHVVRPKLPKPPTDPLGAVFSPPQASPPQPSHGLQSCRNLRGSPKLPDFLQRNPLPPILGSPTKAVPSFDFPKTPSSQNLLALLARQGVVMTPPRNRTLPDLSEVGPFHGQPLGPGLRPGEDPKGPFGRSFSTSRLTDLLLKAAFGTQAPDPGSTESLQEKPMEIAPSAGFGGSLHPGARAGGTSSPSPVVFTVGSPPSGSTPPQGPRTRMFSAGPTGSASSSARHLVPGPCSEAPAPELPAPGHGCSFADPITANLEGAVTFEAPDLPEETLMEQEHTEILRGLRFTLLFVQHVLEIAALKGSASEAAGGPEYQLQESVVADQISLLSREWGFAEQLVLYLKVAELLSSGLQSAIDQIRAGKLCLSSTVKQVVRRLNELYKASVVSCQGLSLRLQRFFLDKQRLLDRIHSITAERLIFSHAVQMVQSAALDEMFQHREGCVPRYHKALLLLEGLQHMLSDQADIENVTKCKLCIERRLSALLTGICA"}, "B2": {"name": "His-STX17 157–275 (domain or fragment, UniProt P56962 157-275, looked up)", "chain": "YALPEIPQDQNAAESWETLEADLIELSQLVTDFSLLVNSQQEKIDSIADHVNSAAVNVEEGTKNLGKAAKYKLAALPVAGALIGGMVGGPIGLLAGFKVAGIAAALGGGVLGFTGGKLI", "notes": "in the vector pET-26b(+); source: E. coli BL21 codon plus, purified; not shown: His6, C-terminal, kept"}}, "key": {"GFP-STX17, P56962": {"target": "T1, GFP-STX17, P56962", "T1 chain": "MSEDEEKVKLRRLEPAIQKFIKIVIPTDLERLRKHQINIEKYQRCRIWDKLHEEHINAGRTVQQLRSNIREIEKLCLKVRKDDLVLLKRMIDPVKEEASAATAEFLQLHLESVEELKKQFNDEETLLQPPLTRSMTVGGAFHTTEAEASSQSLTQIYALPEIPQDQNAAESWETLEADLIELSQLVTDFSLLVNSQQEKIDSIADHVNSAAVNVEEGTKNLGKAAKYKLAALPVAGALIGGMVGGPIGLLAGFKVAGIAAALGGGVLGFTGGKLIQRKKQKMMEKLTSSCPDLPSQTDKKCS", "experiment": "proximity ligation; GFP-STX17 co-transfected with Myc-ULK1 variants or Myc vector into HeLa; anti-Myc and anti-GFP antibodies; with or without serum starvation", "conditions": "remark: other sources report otherwise"}, "[1]": {"target": "T2, GST-ULK1 279–525 (from bacteria) (UniProt O75385 279-525)", "T2 construct": "in the vector pGEX-4t-2; source: E. coli BL21 codon plus, purified", "T2 sequence (looked up)": "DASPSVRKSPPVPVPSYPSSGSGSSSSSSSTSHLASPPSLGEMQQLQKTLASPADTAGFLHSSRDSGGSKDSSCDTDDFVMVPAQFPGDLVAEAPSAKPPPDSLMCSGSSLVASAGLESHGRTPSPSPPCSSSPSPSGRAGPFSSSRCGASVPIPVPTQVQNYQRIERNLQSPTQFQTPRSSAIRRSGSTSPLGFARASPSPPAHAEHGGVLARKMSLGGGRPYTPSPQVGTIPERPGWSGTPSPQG", "experiment": "pull-down; GST-ULK1 279–525 and His-STX17 157–275 purified from bacteria, incubated in IP lysis buffer with glutathione beads for 4 h at 4 °C; western blot with His antibody", "conditions": "both partners purified"}}, "data": [{"binder": "B1", "values": [{"measurement": "fold increase of the PLA signal with serum starvation over no starvation", "setting": "GFP-STX17, P56962", "result": 2.5, "unit": "fold"}]}, {"binder": "B2", "values": [{"measurement": "binding result", "setting": "[1]", "result": "binds"}]}]}
